T1: CK2-phosphorylated human full-length p50^Cdc37 (human, UniProt Q16543 1-378, phosphoserine at 13 (shown by Western blot))
T1 chain: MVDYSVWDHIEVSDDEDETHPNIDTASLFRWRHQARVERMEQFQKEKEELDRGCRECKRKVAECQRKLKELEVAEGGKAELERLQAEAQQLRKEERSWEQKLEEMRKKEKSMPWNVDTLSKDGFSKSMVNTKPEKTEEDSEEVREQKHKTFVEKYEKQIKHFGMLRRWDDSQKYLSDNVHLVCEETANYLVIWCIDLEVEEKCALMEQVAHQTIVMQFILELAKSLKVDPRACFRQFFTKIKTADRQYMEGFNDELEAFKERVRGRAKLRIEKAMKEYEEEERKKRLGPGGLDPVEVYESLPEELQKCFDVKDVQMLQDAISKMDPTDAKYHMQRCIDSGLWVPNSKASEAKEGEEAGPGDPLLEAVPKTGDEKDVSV


Legend:
[1] = target: T1, CK2-phosphorylated human full-length …; experiment: ITC; phosphorylated Cdc37
[2] = target: T1, CK2-phosphorylated human full-length …; experiment: ITC; both phosphorylated

| Kd [1] [nM] | Kd [2] [nM] | Binder |
| --- | --- | --- |
| 1400 |  | human full-length Hsp90β (natural protein) not shown |
|  | 1900 | CK2-phosphorylated human full-length Hsp90β (natural protein, phosphoserine at 255 (shown by Western blot); Ser226 named as a CK2 site, its phosphorylation could not be verified) not shown |
